One molecule from paper doi:10.1101/2021.08.04.455045 (bioRxiv, 2021) can be followed below.

The experiment concerns the target T1, hUHRF1 tandem tudor domain, 10xHIS-TEV-TTD (aa 126-285) (human, UniProt Q96T88-1 126-285).
T1 sequence (looked up): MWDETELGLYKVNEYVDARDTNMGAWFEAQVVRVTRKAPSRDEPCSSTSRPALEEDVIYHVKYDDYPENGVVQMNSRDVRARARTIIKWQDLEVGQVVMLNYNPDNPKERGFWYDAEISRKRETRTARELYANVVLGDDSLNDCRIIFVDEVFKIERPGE
In words: MST.

B1: hUHRF1 Linker 4 (aa 605-675)-6xHIS (domain or fragment, human, UniProt Q96T88-1 605-675, looked up)
chain: MQYPEGYLEALANREREKENSKREEEEQQEGGFASPRTGKGKWKRKSAGGGPSRAGSPRRTSKKTKVEPYS
Take B1: the binding result is on record as “binds”.
